Results reported in the supplement of paper PMC12636428.

Tested on: Saccharomyces cerevisiae
Assay: transcriptional activation domain activity (GFP:mCherry ratio, weighted mean of sorted bins, harmonized to initial dataset scale) (arbitrary fluorescence ratio units); higher = stronger transcriptional activation
Settings: beta-estradiol 1 µM; induction time 4 h
Description: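 53-aa protein tiles (fungal proteins plus yeast TF control tiles) fused C-terminally to a DBD-estrogen-binding domain-mCherry synthetic TF, integrated in S. cerevisiae (URA3 locus) with a GFP reporter. Cells were induced with 1 uM beta-estradiol for 4 h at 30 C, FACS-sorted into 8 bins by GFP:mCherry ratio and barcodes sequenced. Activity is the read-weighted mean bin fluorescence (GFP:mCherry), averaged over barcodes (median 12); tiles under 50 reads were discarded. New active-learning values were harmonized by linear fit onto the scale of the initial (Hummel et al.) dataset. The assay saturates at low and high signal.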

Row | Sequence | transcriptional activation domain activity
1 | DQPLNEILGFLLSWLLMFDHFNEITFKLKQEYTTQLKDGDLISLLLPVLFNIL | 41100
2 | DQSEISRTTSRSDTPLRDEDGLDFWETLRSLATTNPNPPVEKSAENDGAKPQV | 41100
3 | DQTICAEVMRCCESNVVAFRRLVHMIQIQLRNIGIMADIRLVRNLVLVLHGAL | 62000
4 | DQVMKIKPVQKQTTAGQRTRFKAVVVVGDSNGHVGLGVKTAKEVATAIRAAII | 72700
5 | DRDRSRSRSRSRSKSPRRHRRSSRSPRRRGADKSPERAAPAASSKQAEARPRC | 31100
6 | DREAKEDGGDTGGGGGRDRGGEEEEDEEEEEEEEEDDGFIKKTKKDKKKKKKK | 36100
7 | DREHRSKHRRHSSDSRSRSHSHRERRKDKSKHREKEKDKDRKKRKKEKERRRD | 36500
8 | DREKRSSGHRNGRRHRGHRSGRKQRRSRSRSRGDRPDSPVRAKEGEGGAKDRK | < 6570
9 | DRFQLKKFGGYQVEFINYDYGVLQDVMLFSLQRHVNCQEVGVKMLWTIIISEW | 49000
10 | DRHLDHGQLVYLLHSIVTCPRFQPMVRAIIVSRELPFFVQTWPWPYLSLLART | 36100
11 | DRLSLRFTLAISLTDVIRAIAILIYSHFQVDDWRCSLLSFSLYWLTLLYLFLT | 25300
12 | DRMRENGLLSLSDLREYFVCWWRFEKMYRTLIIAETWMDLQAYKVKTLAWLHG | 63200
13 | DRMYNQISQVFDHLYARQDRTWGRVAEDFRSVLLIRWYFDAASLWVTLWCRYT | 48600
14 | DRNYKRVAKQVGFTIDRKRGDDLRHFPIERARLEIIWPLLYTGLACILCYGWA | 70900
15 | DRNYKRVARQIGFTIDRKHGDDLRHFPIERARLELIWPLLGFGLSCYLCYGWV | 49600
16 | DRPRDRDSSRSRRDVSSSRRDRDGEDKESAGDRRDDRKPARDDRRTREDHRRE | 28100
17 | DRPRRDRADDKEATTPRSDAGSHKSRRRSRSRDDERRHSRRHRGGDGDFYRGG | 17700
18 | DRRYRISRGGSRMNQVVENTVSRWVGMLPTWRCGLLLHAFVHLKKVYWCPFLR | 72700
19 | DRSRATEEEDGKSTKRSRARSRTFTFSKSDKGGDGSPSKKVRSTSKSRAKHDG | 31100
20 | DSAMRAIYSFRNSYIAFILFNGSIYYYVARFFGFYHKVLDSPIVGFRWVDLHL | 58300

Row | Sequence | transcriptional activation domain activity
21 | DSAPTKRGRGRPKGSKNKNKSVASPSSPTSGAGSSAPRKRGRPPKAKPAESGA | 38300
22 | DSATPHGSPRRWTPSSKLSPSVAPSSPSSSTSTSSSPKARSRSHSRTCSTEVQ | 42200
23 | DSDEEDESELETDSESETGGIPIHESLSGAKSEDADKNERTIFIGNITVTAVQ | 46400
24 | DSDGDEEPGKKRQKTALSCGECKRRKIKCDRKVPCVSCIKRGEPEKCNWEEAR | 30900
25 | DSDSEEEEEGWQLSPHDVDKVRQMLEPDEVSLQRALQTTPAMRIGMIIWLVIT | 53000
26 | DSDTRRRGGEGGHRMRSSIACTRCRRSKIKCENQGVGSQCKACHGQGRECTYP | 31300
27 | DSEADSEDDDNGAESDKKMPVADKSEHQTGILSKLYKLNVYGEGSFFKPHKDT | 45700
28 | DSEEERMRRRRAKSRDPERERERKASRSPEKKPARSKSRLGRLAAGAAAAGAA | 50300
29 | DSFDAPIQTLGDDQRACLKPGLWFAYKVRFCVTLKQYKVLWMCLVLLRHLRIK | 48000
30 | DSGGDRSTSPDSDRDKENKKASDKTEDSDKETQENGEEEKGGEKERESKKGEK | 16700
31 | DSGKQGFLFLVCLVFFVFFWGFACDLWLGLLLLFFFFPFLSFPLFSLPHYHGH | 43900
32 | DSHHHDELGSEITLADNKFSYLPPTLEELMEEQDCNNGRSFKNFMFSNDTGID | 54500
33 | DSHYILQGVDAAIQILKLCRVCLHPRAVLSYLPHSFYLYLCYAAVFLLKVVFV | 61700
34 | DSKDKREKFRSRMVVLKSRLLFGVCDPYGVLEEGEVYVRVSVPRMGASTLKNT | 67500
35 | DSKGFEARRANMGNDVELTGARAIVLVNIWNVQTSCGLSVPLVVQSNSGTECG | 59400
36 | DSKLLPGFASYLSFCLFLYAITTVLPFFSLDCPYSTPLTPLMCRLYHFFMFGI | 66800
37 | DSKLRATALQVRRGGNCPNTVEVLQQLLLSGGGLDTSSSQTQQVSAADAAAVT | 33300
38 | DSKSDATPAWSDLKTKAGKERKRLPLACIVCRRKKIRCSGEKPACKHCLRARI | 41900
39 | DSLFFDHDLLSSSITNTNNGQGSNNGRQASKDDTLNLLDTTVNSNNNHNANNE | 32900
